Reference: patent publication US20210139548A1 (published 2021)
*1 amine or outer side, *2 acyl side, *3 side chain or, on linkers, in order; H or OH if unused. Side-chain parts run from the residue outwards. The star is where a group is joined. C18 diacid = O=C(O)CCCCCCCCCCCCCCCCC(=O)*; γGlu = O=C(O)[C@H](CCC(=O)[*:2])N[*:1]; Isovaleryl = CC(C)CC(=O)*; AEEA = NCCOCCOCC(=O)O

T1: human neuropeptide Y2 receptor (human, UniProt P49146 1-381)
T1 construct: whole, on cells; also called hNPY2 receptor; hNPY2-R
T1 sequence (looked up): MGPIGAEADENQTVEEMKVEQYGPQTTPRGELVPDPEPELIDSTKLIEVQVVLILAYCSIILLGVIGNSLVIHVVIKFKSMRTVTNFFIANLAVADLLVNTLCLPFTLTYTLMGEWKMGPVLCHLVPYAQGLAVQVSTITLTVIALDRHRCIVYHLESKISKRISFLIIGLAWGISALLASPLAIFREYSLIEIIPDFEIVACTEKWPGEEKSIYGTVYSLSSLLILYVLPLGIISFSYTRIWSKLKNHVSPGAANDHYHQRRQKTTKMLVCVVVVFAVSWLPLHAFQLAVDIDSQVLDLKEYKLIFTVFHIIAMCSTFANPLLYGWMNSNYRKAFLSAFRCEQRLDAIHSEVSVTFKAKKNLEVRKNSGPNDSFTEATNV

B1: Compound 71 (peptide)
peptide: Isovaleryl-APEK([AEEA-AEEA-γGlu-C18 diacid])PEEEASPSELQRYYVSLRHYYNWLTRQRY-NH2
SMILES: CC(C)CC(=O)N[C@@H](C)C(=O)N1CCC[C@H]1C(=O)N[C@@H](CCC(=O)O)C(=O)N[C@@H](CCCCNC(=O)COCCOCCNC(=O)COCCOCCNC(=O)CC[C@H](NC(=O)CCCCCCCCCCCCCCCCC(=O)O)C(=O)O)C(=O)N1CCC[C@H]1C(=O)N[C@@H](CCC(=O)O)C(=O)N[C@@H](CCC(=O)O)C(=O)N[C@@H](CCC(=O)O)C(=O)N[C@@H](C)C(=O)N[C@@H](CO)C(=O)N1CCC[C@H]1C(=O)N[C@@H](CO)C(=O)N[C@@H](CCC(=O)O)C(=O)N[C@@H](CC(C)C)C(=O)N[C@@H](CCC(N)=O)C(=O)N[C@@H](CCCNC(=N)N)C(=O)N[C@@H](Cc1ccc(O)cc1)C(=O)N[C@@H](Cc1ccc(O)cc1)C(=O)N[C@H](C(=O)N[C@@H](CO)C(=O)N[C@@H](CC(C)C)C(=O)N[C@@H](CCCNC(=N)N)C(=O)N[C@@H](Cc1c[nH]cn1)C(=O)N[C@@H](Cc1ccc(O)cc1)C(=O)N[C@@H](Cc1ccc(O)cc1)C(=O)N[C@@H](CC(N)=O)C(=O)N[C@@H](Cc1c[nH]c2ccccc12)C(=O)N[C@@H](CC(C)C)C(=O)N[C@H](C(=O)N[C@@H](CCCNC(=N)N)C(=O)N[C@@H](CCC(N)=O)C(=O)N[C@@H](CCCNC(=N)N)C(=O)N[C@@H](Cc1ccc(O)cc1)C(N)=O)[C@@H](C)O)C(C)C
B2: Compound 85 (peptide)
peptide: Isovaleryl-APEK([AEEA-AEEA-γGlu-C18 diacid])PEEDASPEELQRYAVSLRHYYNWLTRQRY-NH2
SMILES: CC(C)CC(=O)N[C@@H](C)C(=O)N1CCC[C@H]1C(=O)N[C@@H](CCC(=O)O)C(=O)N[C@@H](CCCCNC(=O)COCCOCCNC(=O)COCCOCCNC(=O)CC[C@H](NC(=O)CCCCCCCCCCCCCCCCC(=O)O)C(=O)O)C(=O)N1CCC[C@H]1C(=O)N[C@@H](CCC(=O)O)C(=O)N[C@@H](CCC(=O)O)C(=O)N[C@@H](CC(=O)O)C(=O)N[C@@H](C)C(=O)N[C@@H](CO)C(=O)N1CCC[C@H]1C(=O)N[C@@H](CCC(=O)O)C(=O)N[C@@H](CCC(=O)O)C(=O)N[C@@H](CC(C)C)C(=O)N[C@@H](CCC(N)=O)C(=O)N[C@@H](CCCNC(=N)N)C(=O)N[C@@H](Cc1ccc(O)cc1)C(=O)N[C@@H](C)C(=O)N[C@H](C(=O)N[C@@H](CO)C(=O)N[C@@H](CC(C)C)C(=O)N[C@@H](CCCNC(=N)N)C(=O)N[C@@H](Cc1c[nH]cn1)C(=O)N[C@@H](Cc1ccc(O)cc1)C(=O)N[C@@H](Cc1ccc(O)cc1)C(=O)N[C@@H](CC(N)=O)C(=O)N[C@@H](Cc1c[nH]c2ccccc12)C(=O)N[C@@H](CC(C)C)C(=O)N[C@H](C(=O)N[C@@H](CCCNC(=N)N)C(=O)N[C@@H](CCC(N)=O)C(=O)N[C@@H](CCCNC(=N)N)C(=O)N[C@@H](Cc1ccc(O)cc1)C(N)=O)[C@@H](C)O)C(C)C
B3: Compound 80 (peptide)
peptide: Isovaleryl-APEK([AEEA-AEEA-γGlu-C18 diacid])PEEEASPEETQRYYVSLRHYYNWLTRQRY-NH2
SMILES: CC(C)CC(=O)N[C@@H](C)C(=O)N1CCC[C@H]1C(=O)N[C@@H](CCC(=O)O)C(=O)N[C@@H](CCCCNC(=O)COCCOCCNC(=O)COCCOCCNC(=O)CC[C@H](NC(=O)CCCCCCCCCCCCCCCCC(=O)O)C(=O)O)C(=O)N1CCC[C@H]1C(=O)N[C@@H](CCC(=O)O)C(=O)N[C@@H](CCC(=O)O)C(=O)N[C@@H](CCC(=O)O)C(=O)N[C@@H](C)C(=O)N[C@@H](CO)C(=O)N1CCC[C@H]1C(=O)N[C@@H](CCC(=O)O)C(=O)N[C@@H](CCC(=O)O)C(=O)N[C@H](C(=O)N[C@@H](CCC(N)=O)C(=O)N[C@@H](CCCNC(=N)N)C(=O)N[C@@H](Cc1ccc(O)cc1)C(=O)N[C@@H](Cc1ccc(O)cc1)C(=O)N[C@H](C(=O)N[C@@H](CO)C(=O)N[C@@H](CC(C)C)C(=O)N[C@@H](CCCNC(=N)N)C(=O)N[C@@H](Cc1c[nH]cn1)C(=O)N[C@@H](Cc1ccc(O)cc1)C(=O)N[C@@H](Cc1ccc(O)cc1)C(=O)N[C@@H](CC(N)=O)C(=O)N[C@@H](Cc1c[nH]c2ccccc12)C(=O)N[C@@H](CC(C)C)C(=O)N[C@H](C(=O)N[C@@H](CCCNC(=N)N)C(=O)N[C@@H](CCC(N)=O)C(=O)N[C@@H](CCCNC(=N)N)C(=O)N[C@@H](Cc1ccc(O)cc1)C(N)=O)[C@@H](C)O)C(C)C)[C@@H](C)O
B4: Compound 77 (peptide)
peptide: Isovaleryl-APEK([AEEA-AEEA-γGlu-C18 diacid])PEEDASEEELQRYYVELRHYYNWLTRQRY-NH2
SMILES: CC(C)CC(=O)N[C@@H](C)C(=O)N1CCC[C@H]1C(=O)N[C@@H](CCC(=O)O)C(=O)N[C@@H](CCCCNC(=O)COCCOCCNC(=O)COCCOCCNC(=O)CC[C@H](NC(=O)CCCCCCCCCCCCCCCCC(=O)O)C(=O)O)C(=O)N1CCC[C@H]1C(=O)N[C@@H](CCC(=O)O)C(=O)N[C@@H](CCC(=O)O)C(=O)N[C@@H](CC(=O)O)C(=O)N[C@@H](C)C(=O)N[C@@H](CO)C(=O)N[C@@H](CCC(=O)O)C(=O)N[C@@H](CCC(=O)O)C(=O)N[C@@H](CCC(=O)O)C(=O)N[C@@H](CC(C)C)C(=O)N[C@@H](CCC(N)=O)C(=O)N[C@@H](CCCNC(=N)N)C(=O)N[C@@H](Cc1ccc(O)cc1)C(=O)N[C@@H](Cc1ccc(O)cc1)C(=O)N[C@H](C(=O)N[C@@H](CCC(=O)O)C(=O)N[C@@H](CC(C)C)C(=O)N[C@@H](CCCNC(=N)N)C(=O)N[C@@H](Cc1c[nH]cn1)C(=O)N[C@@H](Cc1ccc(O)cc1)C(=O)N[C@@H](Cc1ccc(O)cc1)C(=O)N[C@@H](CC(N)=O)C(=O)N[C@@H](Cc1c[nH]c2ccccc12)C(=O)N[C@@H](CC(C)C)C(=O)N[C@H](C(=O)N[C@@H](CCCNC(=N)N)C(=O)N[C@@H](CCC(N)=O)C(=O)N[C@@H](CCCNC(=N)N)C(=O)N[C@@H](Cc1ccc(O)cc1)C(N)=O)[C@@H](C)O)C(C)C
B5: Compound 79 (peptide)
peptide: Isovaleryl-APEK([AEEA-AEEA-γGlu-C18 diacid])PEEEASEEELQRYYVSLRHYYNWLTRQRY-NH2
SMILES: CC(C)CC(=O)N[C@@H](C)C(=O)N1CCC[C@H]1C(=O)N[C@@H](CCC(=O)O)C(=O)N[C@@H](CCCCNC(=O)COCCOCCNC(=O)COCCOCCNC(=O)CC[C@H](NC(=O)CCCCCCCCCCCCCCCCC(=O)O)C(=O)O)C(=O)N1CCC[C@H]1C(=O)N[C@@H](CCC(=O)O)C(=O)N[C@@H](CCC(=O)O)C(=O)N[C@@H](CCC(=O)O)C(=O)N[C@@H](C)C(=O)N[C@@H](CO)C(=O)N[C@@H](CCC(=O)O)C(=O)N[C@@H](CCC(=O)O)C(=O)N[C@@H](CCC(=O)O)C(=O)N[C@@H](CC(C)C)C(=O)N[C@@H](CCC(N)=O)C(=O)N[C@@H](CCCNC(=N)N)C(=O)N[C@@H](Cc1ccc(O)cc1)C(=O)N[C@@H](Cc1ccc(O)cc1)C(=O)N[C@H](C(=O)N[C@@H](CO)C(=O)N[C@@H](CC(C)C)C(=O)N[C@@H](CCCNC(=N)N)C(=O)N[C@@H](Cc1c[nH]cn1)C(=O)N[C@@H](Cc1ccc(O)cc1)C(=O)N[C@@H](Cc1ccc(O)cc1)C(=O)N[C@@H](CC(N)=O)C(=O)N[C@@H](Cc1c[nH]c2ccccc12)C(=O)N[C@@H](CC(C)C)C(=O)N[C@H](C(=O)N[C@@H](CCCNC(=N)N)C(=O)N[C@@H](CCC(N)=O)C(=O)N[C@@H](CCCNC(=N)N)C(=O)N[C@@H](Cc1ccc(O)cc1)C(N)=O)[C@@H](C)O)C(C)C

Target: T1, human neuropeptide Y2 receptor
Test: radioligand competition (125I-PYY(1-36)), hNPY2R membranes
Summary of the method: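 Commercial human Y2 receptor membranes (0.5 μg protein/well) were incubated with peptide for 2 h at room temperature in 50 mM HEPES, 5 mM MgCl₂, 1 mM CaCl₂, pH 7.4, with 0.2% ovalbumin. Bound radioligand was separated on PEI-soaked GF/C filters and counted by scintillation, and IC₅₀ came from nonlinear sigmoidal regression.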

Row | Binder | Ki
1 | B1 | 5.22 nM
2 | B2 | 1.56 nM
3 | B3 | 6.96 nM
4 | B4 | 6.17 nM
5 | B5 | 4.52 nM
